Values of other authors, collected in article PMC8215388.

Target: DnaK (Escherichia coli) (UniProt P0A6Y8)
Experiment: analytical ultracentrifugation and cross-linking

DnaK, sequence (P0A6Y8 2-638): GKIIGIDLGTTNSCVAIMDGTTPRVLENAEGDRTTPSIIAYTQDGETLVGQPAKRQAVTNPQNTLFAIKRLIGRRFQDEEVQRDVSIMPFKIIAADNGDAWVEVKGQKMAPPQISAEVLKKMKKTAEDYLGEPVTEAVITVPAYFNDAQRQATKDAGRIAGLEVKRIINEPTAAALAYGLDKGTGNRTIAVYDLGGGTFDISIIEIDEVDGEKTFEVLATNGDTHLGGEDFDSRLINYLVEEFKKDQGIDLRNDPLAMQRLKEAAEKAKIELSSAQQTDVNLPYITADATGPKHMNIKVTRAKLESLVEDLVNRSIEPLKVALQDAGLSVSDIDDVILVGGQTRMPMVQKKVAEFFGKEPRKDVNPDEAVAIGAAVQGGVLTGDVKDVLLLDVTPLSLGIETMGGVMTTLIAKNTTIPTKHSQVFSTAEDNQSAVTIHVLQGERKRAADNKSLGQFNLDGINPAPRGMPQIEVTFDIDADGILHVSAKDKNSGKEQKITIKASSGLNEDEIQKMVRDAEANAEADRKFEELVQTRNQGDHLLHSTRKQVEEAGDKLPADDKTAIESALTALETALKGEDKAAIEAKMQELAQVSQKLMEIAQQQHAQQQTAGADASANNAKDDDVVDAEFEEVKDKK

For DnaK (from UniProt P0A6Y8), the Kd is given as 200 µM.
